Laboratory results published in patent US20260042834A1 (HBM ALPHA THERAPEUTICS, published 2026).
Residue numbers refer to the chain shown, from its start.

T1: CRH (CT-Biotin) (human and mouse (same sequence), biotin on an added C-terminal K (CRH-K-Biotin))
T1 construct: also called Peptide 4 (CRH-Biotin)
T1 peptide: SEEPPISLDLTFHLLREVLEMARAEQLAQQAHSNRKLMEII

T2: corticotropin-releasing hormone (CRH) peptide (human and mouse, not fully specified)
T2 peptide: T1 peptide

T3: CRH (NT-Biotin) (human and mouse, not fully specified; biotin at the N-terminus)
T3 construct: also called Biotin-CRH; N-terminally biotinylated corticotropin-releasing hormone
T3 peptide: T1 peptide

T4: corticotropin-releasing hormone (CRH) peptide (human and mouse (same sequence), not fully specified)
T4 peptide: T1 peptide

T5: CRH (CT-Biotin) (human and mouse, biotin on the added C-terminal K (-K-Biotin))
T5 construct: also called Peptide 4 (CRH-Biotin); C-terminally biotinylated corticotropin-releasing hormone
T5 peptide: T1 peptide

B1: PR302055 (antibody, human IgG1, kappa, V domains shown)
VH: EMQLVESGGGLVQPGGSLKLSCAASGFTFSNYWMNWVRQASGKGLEWVAEIRLKSNNYATHYAESVKGRFTISRDDSKSTVYLQMNSLKTEDTAVYYCTVGTLVYWGQGTLVTVSS
VL: DIQLTQSPSSLSASVGDRVTITCRASQSVSTSTYNYMHWFQQKPGKAPKLLIKFASNLESGVPSRFSGSGSGTDFTLTISSLQPEDTATYYCQHSWEIPYTFGQGTKLEIKR
notes: humanized variant of PR301777
B2: PR301788 (antibody, human IgG1, kappa, V domains shown)
VH: EMKLEESGGGLVQPGGSMKLSCVASGFTFSNYWMNWVRQSPEKGLEWVAEIRLKSNNYATHYAESVKGRFTISRDDSKSSVYLQMNNLRAEDTGIYYCTIGTLVYWGQGTLVTVSA
VL: DIVLTQSPASLAVSLGQRATISCRASQSVSTSTYNYMHWFQQKPGQPPKLLIKFASNLESGVPARFSGSGSGTDFTLNIHPVEEEDTATFYCQHSWEIPYTFGGGTKLEIKR
notes: Mouse variable domains, expressed recombinantly with human IgG1 wildtype Fc; also called Series 5 mAb
B3: PR301790 (antibody, human IgG1, kappa, V domains shown)
VH: B2 VH
VL: B2 VL with T33S, F40Y
notes: as for B2
B4: PR301803 (antibody, human IgG1, kappa, V domains shown)
VH: B2 VH with M2V, S30N, V66L, I100V
VL: B2 VL with A12V, F40Y
notes: as for B2
B5: PR301306 (antibody, human IgG1, kappa, V domains shown)
VH: B2 VH with M2V, H61L, I100R
VL: B2 VL with T33D, F40Y, F54Y, F90Y
notes: Mouse variable domains, expressed recombinantly with human IgG1 wildtype Fc; also called Series 3 mAb
B6: PR301777 (antibody, human IgG1, kappa, V domains shown)
VH: B2 VH with S80G, R89G, I100V
VL: B2 VL
notes: as for B2
B7: PR301806 (antibody, human IgG1, kappa, V domains shown)
VH: QVQLQQPGAELVKPGTSVKMSCKASGYTFTSYWMHWVKQRPGQGLEWIGDIYPGSDSTNYNEKFKSKASLTVDTSSSTAYMQLSSLTSEDSAVYYCARSITTTTFWYFDVWGAGTTVTVSS
VL: DVLMTQTPLSLPVSLGDQASISCRSSQSFVYSNGNTYLQWYLQKPGQSPKLLIYKVSNRFSGVPDRFSGSGSGTDFTLKISRVEAEDLGVYYCFQGSHVPPTFGAGTKLELKR
notes: Mouse variable domains, expressed recombinantly with human IgG1 wildtype Fc; also called Series 6 mAb
B8: PR302324 (antibody, human IgG1, kappa, V domains shown)
VH: EVQLQQSGPELVKPGASVKMSCKASGYTFTDYFMKWVKQSHGGSLEWIGVISPNNGDTFYNQKFKGKATLTVDKSSSTAFMQLNSLTSEDSAVYSCARGTDRALFAYWGQGTLVTVSA
VL: B7 VL with F29I, Y31H, N33D, Q39E, K44R, E84G, V99I, P101W, A105G, L111V
notes: Mouse variable domains, expressed recombinantly with human IgG1 wildtype Fc; also called Series 10 mAb
B9: PR301780 (antibody, human IgG1, kappa, V domains shown)
VH: QIQLVQSGPELKKPGETVKISCKASGYTFTNFGLNWVKQAPGKGLKWMGWINTYTGEPTYTDDFKGRFAFSLETSASTAYLQINNLKKEDTATYFCARGTYRDDGAWFAYWGQGTLVTVSA
VL: B7 VL with S28I, F29I, Y31H, Q39E, Y92H, P101W, A105G, L111I
notes: Mouse variable domains, expressed recombinantly with human IgG1 wildtype Fc; also called Series 7 mAb
B10: PR302312 (antibody, human IgG1, kappa, V domains shown)
VH: B8 VH with V37M, G43K, S52N, K63N, F80Y, S95Y, A97T, D101A
VL: B7 VL with F29I, Y31H, N33D, Q39E, K44R, E84G, P101W, A105G, L111V
notes: as for B8
B11: PR302341 (antibody, human IgG1, kappa, V domains shown)
VH: B8 VH with G43E, S52N, T58I, T115A
VL: DVLMTQTPLSLPVSLGDQASISCRSGQSIVHSDGNTYLEWYLQRPGQSPRLLIYKVSNRFSGVPDRFSGSGSGTDFTLKISRVGAEDLGIYYCFQGSHIPWTFGGGTKLEVKR
notes: as for B8
B12: PR302333 (antibody, human IgG1, kappa, V domains shown)
VH: QIQLVQSGPELKKPGETVKISCKASGYTFTNFGMNWVKQAPGKVLKWMGWINTYTGEPIYADDFKGRFAFSLETSASAAYLQINNLKNEDTATYFCSRSTMITTGGVFAYWGQGTLVTVSA
VL: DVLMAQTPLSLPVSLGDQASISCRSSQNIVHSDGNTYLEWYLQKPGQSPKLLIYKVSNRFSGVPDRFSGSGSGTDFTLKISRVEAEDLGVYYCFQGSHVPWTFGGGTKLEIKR
notes: as for B9
B13: PR302332 (antibody, human IgG1, kappa, V domains shown)
VH: B12 VH with N35H, D62A, A78T
VL: B11 VL with T5A, G26S, R44K, R50K, G84E, I90V, I99V, V111I
notes: as for B9
B14: PR302309 (antibody, human IgG1, kappa, V domains shown)
VH: B12 VH with F32Y, A61T, A78T
VL: B11 VL with T5A, G26S, S28T, R44K, R50K, G84E, I90V, I99V, V111I
notes: as for B9
B15: PR302328 (antibody, human IgG1, kappa, V domains shown)
VH: EVKLVESGGGLVKPGGSLKLSCAASGFTFSSYAMSWVRQTPEKRLEWVASIRSGGTTYYPDSVKGRFTISRDNARNILYLQMSSLRSEDTAIYYCTRGIDWGQGTLVTVSA
VL: NIVMTQTPKFLLVSAGDRVTITCKASQSVNNDVAWYQQKPGQSPKLLIYYASNRYTGVPDRFTGSGYGTDFTFTISTVQAEDLAVYFCQQDYSSWTFGGGTKLEIKR
notes: Mouse variable domains, expressed recombinantly with human IgG1 wildtype Fc; also called Series 9 mAb
B16: PR302331 (antibody, human IgG1, kappa, V domains shown)
VH: B15 VH with T40S
VL: B15 VL with T22A
notes: as for B15
B17: PR302339 (antibody, human IgG1, kappa, V domains shown)
VH: B15 VH with M34L
VL: B15 VL
notes: as for B15
B18: PR302334 (antibody, human IgG1, kappa, V domains shown)
VH: B15 VH with S31T
VL: B15 VL with V19I, K102N
notes: as for B15
B19: PR302315 (antibody, human IgG1, kappa, V domains shown)
VH: DVQLVESGGGLMQPGGSRKLSCVASGFTFSSFGMHWVRQAPEKGLEWVAYISSGSSIIYYADTVKGRFTISRDNPKNILFLQMTSLRSEDTAMYYCARDITTATFAYWGQGTLVTVSA
VL: DVVMTQTPLSLPVSLGDQASISCRSSQSLVHSNGNTYLHWYLQKPGQSPKLLIYKVSNRFSGVPDRFSGSGSGTDFTLKISRVEAEDLGVYFCSQSTHVPWTFGGGTKLEIKR
notes: Mouse variable domains, expressed recombinantly with human IgG1 wildtype Fc; also called Series 8 mAb
B20: PR302335 (antibody, human IgG1, kappa, V domains shown)
VH: B19 VH with M12V, V23A, S56T, I58F, I78T, Y107F
VL: B19 VL with M4L, A19V, S28N, V30L, S32N, K50R, S81T, V99I
notes: as for B19

Target: T1, CRH (CT-Biotin)
Experiment: ELISA, biotinylated CRH on streptavidin plate
Experimental: (§1) Streptavidin (Thermo, Cat: 21125) was diluted in PBS to a concentration of 2 μg/ml. 100 μl of diluted streptavidin was added per well to ELISA microplates, and the plates were incubated overnight at 4° C. […] 100 μL of 3,3′,5,5′-tetramethylbenzidine (TMB) substrate (Biopanda, Cat: TMB-S-003) was added, and the plates were incubated at room temperature for 15 minutes. 100 μL of ELISA stopping solution (Solarbio, Cat #: C1058) was added to terminate the reaction, and the optical density at 450 nm (OD450 nm) was determined by an ELISA plate reader (Molecular Devices, Spectra max 384 plus).

Binder	EC50 [nM]
B1	0.013

Target: T2, corticotropin-releasing hormone (CRH) …
Experiment: cell-based or functional assay

Binder	hCRHR1 Reporter IC50 [nM]
B2	0.46
B3	0.055
B4	1.04
B5	35.6
B6	0.609
B7	4.53
B8	0.498
B9	61.1
B10	1.37
B11	0.503
B12	1.92
B13	1.93
B14	1.38
B15	0.545
B16	0.39
B17	0.852
B18	0.546
B19	13.9
B20	3.72

Target: T3, CRH (NT-Biotin)
Experiment: ELISA, N-terminally biotinylated CRH on streptavidin-coated plate
Experimental: as §1

Binder	EC50 [nM]
B2	0.018
B3	0.017
B4	0.021
B5	0.094
B6	0.027
B7	0.013
B8	0.019
B9	0.938
B10	0.025
B11	0.023
B12	0.035
B13	0.107
B14	0.028
B15	0.043
B16	0.016
B17	0.018
B18	0.026
B19	0.014
B20	0.014

Target: T4, corticotropin-releasing hormone (CRH) …
Experiment: cell-based or functional assay

Binder	hCRHR1 Luciferase Reporter Assay IC50 [nM]	mCrhr1 Luciferase Reporter Assay IC50 [nM]
B1	1.35	4.67

Target: T5, CRH (CT-Biotin)
Experiment: ELISA, C-terminally biotinylated CRH on streptavidin-coated plate
Experimental: as §1

Binder	EC50 [nM]
B2	0.011
B3	0.019
B4	0.013
B5	0.037
B6	0.038
B7	0.006
B8	0.016
B9	0.03
B10	~0.011
B11	0.017
B12	0.022
B13	0.072
B14	0.015
B15	0.03
B16	0.02
B17	0.018
B18	0.021
B19	0.008
B20	0.016
